Changes are numbered by the printed parent chain.
B1: D4 competitor (dsDNA)
DNA 1: GAATTCGATTCTGATAATCTGTGTGTGATCAAGCTT
DNA 2: AAGCTTGATCACACACAGATTATCAGAATCGAATTC
B2: D3 competitor (dsDNA)
DNA 1: GAATTCGATAGATTTAATATTTCAGTCATCAAGCTT
DNA 2: AAGCTTGATGACTGAAATATTAAATCTATCGAATTC
B3: BSXRE probe (dsDNA)
DNA 1: GAATTCGATGGCGCTAATCGGTGGGGGATCAAGCTT
DNA 2: AAGCTTCATCCCCCACCGATTAGCGCCATCGAATTC
B4: BSXRE-mut probe (dsDNA)
DNA 1: B3 DNA 1 with A17C, T18G, C19A, G20T
DNA 2: B3 DNA 2 with C17A, G18T, A19C, T20G
B5: D2 competitor (dsDNA)
DNA 1: GAATTCGATTGTTTTTAATAAAGATTTATCAAGCTT
DNA 2: AAGCTTGATAAATCTTTATTAAAAACAATCGAATTC
B6: P3 competitor (dsDNA)
DNA 1: GAATTCGATCTCCTGTAATCTGCCTAAATCAAGCTT
DNA 2: AAGCTTGATTTAGGCAGATTACAGGAGATCGAATTC

Legend:
GST-Bsx [1] = target: T1, GST-Bsx (zebrafish, UniProt Q6R3Q6 1-227); assay: competition; competitor vs BSXRE probe (EMSA); EMSA: DIG Gel Shift Kit (Roche) per manufacturer, 2.0 pmol GST-Bsx with 32 fmol DIG-oligonucleotide or 8 fmol DIG-147bp probe; buffer, pH and temperature not stated; settings: protein: recombinant; tags: N-terminal GST (pGEX-5X-1); annealed synthetic oligonucleotides
T1 sequence (Q6R3Q6 whole entry): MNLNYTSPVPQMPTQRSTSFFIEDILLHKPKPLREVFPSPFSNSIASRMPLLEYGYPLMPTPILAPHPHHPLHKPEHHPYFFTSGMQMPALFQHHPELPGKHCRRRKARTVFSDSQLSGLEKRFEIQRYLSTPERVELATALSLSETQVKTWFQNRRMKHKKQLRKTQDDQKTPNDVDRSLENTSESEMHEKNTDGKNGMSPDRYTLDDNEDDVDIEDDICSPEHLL

GST-Bsx [2] = target: T1, GST-Bsx; assay: EMSA; EMSA: DIG Gel Shift Kit (Roche) per manufacturer, 2.0 pmol GST-Bsx with 32 fmol DIG-oligonucleotide or 8 fmol DIG-147bp probe; buffer, pH and temperature not stated; settings: protein: recombinant, tags: N-terminal GST (pGEX-5X-1), label: DIG, annealed synthetic oligonucleotides

Row | Binder | binding result (GST-Bsx [1]) | other results
1 | B1 | binds | 
2 | B2 | binds | 
3 | B3 |  | binding result (GST-Bsx [2]; 36-mer): binds
4 | B4 |  | binding result (GST-Bsx [2]): no binding
5 | B5 | binds | 
6 | B6 | binds | 
